Measured values reported in patent US7090843B1, “Recombinant anti-CD30 antibodies and uses thereof” (Seattle Genetics, Inc., priority 2000, dated 2006).
Read-outs that look alike come from different tables or passages of the source.

How the values were obtained:
HD cell line L428 = assay: Chemotherapeutic drugs on L428 cells pre-cultured with or without cross-linked AC10 (3H-thymidine); format: cell-based
Experimental: L428 cells were cultured for 24 hours in the presence or absence of 0.1 μg/ml anti-CD30 antibody, AC10, crosslinked by the addition of 20 μg/ml goat anti-mouse IgG antibodies. After the 24-hour culture period, the cells were harvested and washed with phosphate buffered saline (PBS). The cells were then plated into 96-well flat-bottom tissue culture plates at 5×10^3 cells/well and mixed with various dilutions of chemotherapeutic drugs. After a 1-hour exposure to the drugs the cells were washed twice, followed by the addition of fresh culture media. The plates were then incubated at 37° C. for 72 hours followed by a 4-hour incubation with 0.5 μCi/well ^3H-thymidine. The inhibition of growth was determined by comparing the amount of ^3H-thymidine incorporated into treated cells to the amount incorporated into untreated control cells.
To evaluate the effect of the anti-CD30 mAb in combination with chemotherapeutic drugs, L428 cells were incubated for 24 hours in either the absence of antibody or the presence of AC10 at 0.1 μg/ml with 20 μg/ml goat anti-mouse IgG to provide crosslinking for the primary antibody. After this incubation the cells were plated into 96-well tissue culture plates at 5×10^3 cells/well in the presence of dilutions of chemotherapeutic drugs including doxorubicin, cisplatin, and etoposide (Table 3). The EC50, concentration of drug needed to inhibit the incorporation of ^3H-thymidine by 50% compared to untreated control cells, was then determined for cells treated with the drugs alone or the combinations of drug and antibody.

[1] = test system: L540cy Hodgkin's disease xenografts; assay: Disseminated L540cy Hodgkin's disease xenograft; format: in vivo, SCID mice; conditions: 1 mg/kg/injection i.p. q2d×10 from d1 (FIG. 5A)
Experimental: (§1) Human tumor xenograft models: Female C.B-17 SCID mice, obtained from Taconic (Germantown, N.Y.) at 4–6 weeks of age, were used for all efficacy studies. To establish xenograft models of Hodgkin's disease, L540cy (HD) cells were harvested from cell culture, washed in ice cold phosphate buffered saline (PBS), resuspended in PBS, and maintained on ice until implantation. For disseminated disease models, mice were injected intravenously through the tail vein with 10^7 L540cy cells. Solid tumor xenografts were established by injecting mice subcutaneously (s.c.) with 2×10^7 L540cy cells. For therapeutic evaluation the indicated treatment doses and schedules were used.
Administration of AC10 and HeFi-1: Disseminated L540cy tumor bearing mice received 10^7 cells through the tail vein on d0 followed by therapy initiated on d1. Treated mice received i.p. injections of either AC10 or HeFi-1 every two days for a total of 10 injections, q2d×10, at 1 mg/kg/injection.

ALCL tumor xenografts = conditions: Tian et al., 1995; cited from earlier work
HDLM-2 = assay: Proliferation assay (3H-thymidine incorporation), immobilized or cross-linked anti-CD30 mAbs; format: cell-based
Experimental: (§2) Proliferation assays: CD30 expressing cell lines were cultured in flat-bottom 96-well plates at a density of 50,000 or 5,000 cells/well in growth media (RPMI with 10% fetal bovine serum (FBS) for cell lines L428, KM-H2 and Karpas 299, and RPMI/20% FBS for cell lines HDLM-2 and L540. The cell lines were cultured in the absence or presence of cross-linked soluble anti-CD30 mAbs or immobilized anti-CD30 mAbs, as described below.
(§3) Antibody cross-linking in solution: To cross-link the anti-CD30 antibodies in solution, various dilutions of AC10 or HeFi-1 were titrated into 96-well flat bottom tissue culture plates in the absence or presence of 20 μg/ml polyclonal goat anti-mouse IgG antibodies. Hodgkin's disease cell lines were then added to the plates at either 50,000 or 5,000 cells/well. The plates were incubated at 37° C. for 72 hours and were labeled with ^3H-thymidine, 1 μCi/well, for the final 5 hours.
(§4) Antibody immobilization: Antibody immobilization was obtained by coating wells with antibody in 50 mmol/L Tris buffer (pH 8.5) for 18 hours at 4° C. Prior to the addition of cells, wells were washed twice with PBS to remove unbound mAb. 50,000 or 5,000 cells in a total volume of 200 μl were added to each well. Proliferation was determined by uptake of ^3H-thymidine (0.5 μCi/well) during the final 8 hours of a 72 hour culture period.

L540 [2] = assay: as above; format: cell-based
Experimental: as §2, §3, §4

KM-H2 = assay: as above; format: cell-based
Experimental: as §2, §3, §4

L428 [3] = assay: as above; format: cell-based
Experimental: as §2, §3, §4

L540 cells = assay: Co-cultivation of L540 cells with antibodies, isolation of sCD30 from culture supernatant; format: cell-based; conditions: L540 cells co-cultivated with antibody
From the text: At the Fourth Workshop on Leukocyte Differentiation Antigens in Vienna in February 1989, monoclonal antibodies were submitted by three different laboratories and finally characterized as belonging to the CD30 group. […] However, the antibody Ber-H2 also labels a subpopulation of plasma cells (Schwarting et al., 1988, Blood 74:1678–1689) and G. Pallesen (G. Pallesen, 1990, Histopathology 16:409–413) describes, on page 411, that Ber-H2 is cross-reacting with an epitope of an unrelated antigen which is altered by formaldehyde.

L540 [4] = conditions: co-culture with mAb; cited from earlier work
L428 [5] = conditions: co-culture with mAb; cited from earlier work
[6] = test system: L540cy Hodgkin's disease xenografts; assay: Subcutaneous L540cy Hodgkin's disease xenograft; format: in vivo, SCID mice; conditions: tumors >150 mm^3 at start, 2 mg/kg twice per week, five injections (FIG. 6)
Experimental: as §1
For the subcutaneous L540cy model, mice were injected s.c. with 2×10^7 cells and were observed daily for solid tumor formation. When tumors were palpable, the animals were randomly distributed into groups and received either AC10 or HeFi-1 q2d×10 at 2 mg/kg/injection.
To evaluate the efficacy of cAC10 in vivo, SCID mice were implanted subcutaneously with L540cy cells as described above. When the tumors reached an average size of greater than 150 mm^3 the mice were divided into groups that were either untreated or treated with 2 mg/kg cAC 10 twice per week for a total of five injections. The tumors in the untreated mice rapidly grew to an average size of greater than 600 mm^3 (FIG. 6).

[7] = Homo sapiens, L-428, L428, combination of drug and AC10 0.1 μg/ml cross-linked, read-out: EC50 (after incubation with AC10)
[8] = Homo sapiens, L-428, L428, drug alone, read-out: EC50 (drug alone)
[9] = Homo sapiens, L-428, L428, 24 hours with 0.1 μg/ml AC10 cross-linked with 20 μg/ml goat anti-mouse IgG, then 1-hour drug exposure, 72 hours, read-out: EC50, nM with AC10
[10] = Homo sapiens, L-428, L428, no antibody, 1-hour drug exposure, 72 hours, read-out: EC50, nM without AC10
[11] = soluble mAb 0.1 μg/ml cross-linked with 20 μg/ml goat anti-mouse IgG, 5×10^4 cell/well, 72 hours (FIG. 3)
[12] = soluble mAb cross-linked with 20 μg/ml goat anti-mouse IgG, 5×10^3 cell/well, 72 hours (FIG. 4)
[13] = immobilized mAb 10 μg/ml, 5,000 cells/well, 72 hours (FIG. 2)
[14] = immobilized mAb 10 μg/ml, 50,000 cells/well, 72 hours (FIG. 1)

Molecule	EC50 (HD cell line L428; [7]) [nM]	EC50 (HD cell line L428; [8]) [nM]	EC50 (HD cell line L428; [9]) [nM]	EC50 (HD cell line L428; [10]) [nM]	signs of disease [1]	cell growth (3H-thymidine incorporation) (HDLM-2; [11])	cell growth (3H-thymidine incorporation) (HDLM-2; [12])	cell growth (3H-thymidine incorporation) (L540 [2]; [11])	cell growth (3H-thymidine incorporation) (L540 [2]; [12])	cell growth (3H-thymidine incorporation) (KM-H2; [11])	cell growth (3H-thymidine incorporation) (L428 [3]; [11])	cell growth (3H-thymidine incorporation) (L428 [3]; [12])	other results
N.N.[Cl][Pt][Cl] [Cisplatin]													EC50 (HD cell line L428; L428, combination of drug and AC10 0.1 μg/ml cross-linked, read-out: EC50 (after incubation with AC10)): ~500 nM; EC50 (HD cell line L428; L428, drug alone, read-out: EC50 (drug alone)): ~1500 nM; EC50 (HD cell line L428; L428, 24 hours with 0.1 μg/ml AC10 cross-linked with 20 μg/ml goat anti-mouse IgG, then 1-hour drug exposure, 72 hours, read-out: EC50, nM with AC10): 1500 nM; EC50 (HD cell line L428; L428, no antibody, 1-hour drug exposure, 72 hours, read-out: EC50, nM without AC10): 500 nM
COc1cccc2c1C(=O)c1c(O)c3c(c(O)c1C2=O)C[C@@](O)(C(=O)CO)C[C@@H]3O[C@H]1C[C@H](N)[C@H](O)[C@H](C)O1 [Doxorubicin]	~9	~45	45	9									
COc1cc([C@@H]2c3cc4c(cc3[C@@H](O[C@@H]3O[C@@H]5CO[C@@H](C)O[C@H]5[C@H](O)[C@H]3O)[C@H]3COC(=O)[C@H]23)OCO4)cc(OC)c1O [Etoposide]	~600	~1500	1500	600									
HeFi-1: anti-CD30 mAb produced by immunizing mice with the L428 Hodgkin's disease cell line (antibody, V domains shown) VH: EVKLVESGGGLVQPGGSLRLSCATSGFTFSDYYMNWVRQPPGKALEWLGFIRNKANGYTTEFSASVMGRFTISRDDSQSILYLQMNTLRAEDSATYYCARDPPYGNPHYYAMDYWGQGTSVTVSS VL: DIVLTQSPASLAVSLGQRATISCRASKSVSASGYNYMHWYQQKAGQPPKLLIHLASNLESGVPARFSGSGSGTDFTLNIHPVEEEDASTYYCQHSGELPFTFGSGTKLEIK					no signs of disease	growth inhibited	growth inhibited	growth inhibited	growth inhibited	growth inhibited	growth inhibited	growth inhibited	survival of SCID mice bearing ALCL tumor xenografts (ALCL tumor xenografts): prolonged survival; release of the sCD30 (L540 cells): weakly enhanced; viability of the cell line on co-culture (L540 [4]): failed to reveal any direct effect; viability of the cell line on co-culture (L428 [5]): failed to reveal any direct effect
AC10: murine anti-CD30 monoclonal antibody prepared against human NK-like cell line YT; hybridoma deposit ATCC PTA-6679 (antibody, listed as Mus musculus, V domains shown) VH: QIQLQQSGPEVVKPGASVKISCKASGYTFTDYYITWVKQKPGQGLEWIGWIYPGSGNTKYNEKFKGKATLTVDTSSSTAFMQLSSLTSEDTAVYFCANYGNYWFAYWGQGTQVTVSA VL: DIVLTQSPASLAVSLGQRATISCKASQSVDFDGDSYMNWYQQKPGQPPKVLIYAASNLESGIPARFSGSGSGTDFTLNIHPVEEEDAATYYCQQSNEDPWTFGGGTKLEIK					no signs of disease	growth inhibited	growth inhibited	growth inhibited	growth inhibited	growth inhibited	growth inhibited	growth inhibited	cell growth (3H-thymidine incorporation) (HDLM-2; [13]): growth inhibition; cell growth (3H-thymidine incorporation) (HDLM-2; [14]): inhibition of cell growth; cell growth (3H-thymidine incorporation) (L540 [2]; [13]): growth inhibition; cell growth (3H-thymidine incorporation) (L540 [2]; [14]): inhibition of cell growth; cell growth (3H-thymidine incorporation) (KM-H2; [13]): growth inhibition; cell growth (3H-thymidine incorporation) (KM-H2; [14]): inhibition of cell growth; cell growth (3H-thymidine incorporation) (KM-H2; soluble mAb 0.11 g/ml cross-linked with 20 μg/ml goat anti-mouse IgG, 5×10^3 cell/well, 72 hours (FIG. 4)): growth inhibited; cell growth (3H-thymidine incorporation) (L428 [3]; [13]): growth inhibition; cell growth (3H-thymidine incorporation) (L428 [3]; [14]): inhibition of cell growth
cAC10: chimeric antibody: AC10 heavy and light chain variable regions with human gamma 1 and kappa constant regions (antibody, left off: a dimerising Fc or GST, chimeric antibody: AC10 heavy and light chain variable regions with human gamma 1 and kappa constant regions) heavy: QIQLQQSGPEVVKPGASVKISCKASGYTFTDYYITWVKQKPGQGLEWIGWIYPGSGNTKYNEKFKGKATLTVDTSSSTAFMQLSSLTSEDTAVYFCANYGNYWFAYWGQGTQVTVSA light: DIVLTQSPASLAVSLGQRATISCKASQSVDFDGDSYMNWYQQKPGQPPKVLIYAASNLESGIPARFSGSGSGTDFTLNIHPVEEEDAATYYCQQSNEDPWTFGGGTKLEIK													average tumor size [6]: remained about the same size
